# According to patent publication US20090062189A1, “TUMOR SUPPRESSOR PROTEIN AND NUCLEOTIDE ENCODING SAME” (priority 2006, published 2009):
# B1: sPDZD2: secreted 37 kDa cleavage product of human PDZD2, tumor suppressor protein of SEQ ID NO: 2; recombinant form carries N-terminal AGH (protein)
# chain: LDKLCSEDYSAGPSAVLFKTELEITPRRSPGPPAGGVSCPEKGGNRACPGGSGPKTSAAETPSSASDTGEAAQDLPFRRSWSVNLDQLLVSAGDQQRLQSVLSSVGSKSTILTLIQEAKAQSENEEDVCFIVLNRKEGSGLGFSVAGGTDVEPKSITVHRVFSQGAASQEGTMNRGDFLLSVNGASLAGLAHGNVLKVLHQAQLHKDALVVIKKGMDQPRPSARQEPPTANGKGLLSRKTIPLEPGIGRSVAVHDALCVEVLKTSAGLGLSLDGGKSSVTGDGPLVIKRVYKGGAAEQAGIIEAGDEILAINGKPLVGLMHFDAWNIMKSVPEGPVQLLIRKHRNSS
# How the values were obtained:
# LNCaP cells [1] = test: Trypan blue dye exclusion cell viability assay; format: cell-based, human
# Procedure: The effects of sPDZD2 on cell viability were monitored by trypan blue dye exclusion assays. Data are shown as mean±S.E. Two group comparisons were analyzed by unpaired Student's t test. The level of significance for all statistical analyses was set at P<0.05. P<0.001 compared to control.
# MCF-7 cells [2] = test: Trypan blue dye exclusion cell viability assay; format: cell-based, human; details: for viability of the cells: mean ± S.E.
# Hep-G2 cells [3] = test: MTS cell proliferation assay
# Procedure: (§1) To determine whether or not alterations in PDZD2 and sPDZD2 levels in inhibitor-treated cells are associated with any changes in the cell growth rate, we also monitored DU145, PC-3, 22Rv1, MCF-7 and Hep-G2 cell proliferation by MTS-based assays. Cell proliferation was measured by a tetrazolium-based Cell Titer 96® AQucous assay kit (Promega). Absorbance at 490 nm was recorded 3 hours after MTS addition.
# (§2) Cell proliferation was measured by a tetrazolium-based Cell Titer 96® AQucous assay kit (Promega). Absorbance at 490 nm was recorded 3 hours after MTS addition. […] The number of viable cells was counted using hemocytometers. Any apoptotic effect on cancer cells induced by sPDZD2 was measured by the Cell Death Detection ELISA^PLUS assay kit (Roche), which detects the presence of mono- and oligonucleosomes in the cytoplasm of the cells after lysis. Briefly, the cancer cells (1×10^5/ml) were seeded in 24-well plates and treated with 10^−8 M and 10^−7 M sPDZD2 for 24 hours. After treatment, cells were harvested and any apoptosis was detected according to manufacturer's instructions.
# 22Rv1 cells [4] = test: Trypan blue dye exclusion cell viability assay; format: cell-based, human; details: for viability of the cells: mean ± S.E.
# PC-3 cells [5] = test: Trypan blue dye exclusion cell viability assay; format: cell-based, human; details: for viability of the cells: mean ± S.E.
# PC-3 cells [6] = test: MTS cell proliferation assay
# Procedure: as §1, §2
# 22Rv1 cells [7] = test: MTS cell proliferation assay
# Procedure: as §1, §2
# DU145 cells = test: MTS cell proliferation assay
# Procedure: as §1, §2
# DU 145 cells = test: Trypan blue dye exclusion cell viability assay; format: cell-based, human; details: for viability of the cells: DU 145, mean ± S.E.
# Hep-G2 cells [8] = test: Trypan blue dye exclusion cell viability assay; format: cell-based, human; details: for viability of the cells: mean ± S.E.
# MCF-7 cells [9] = test: MTS cell proliferation assay
# Procedure: as §1, §2
# LNCaP cells [10] = test: Cell Death Detection ELISA PLUS apoptosis assay; format: cell-based, human
# Procedure: Data are shown as mean±S.E. Two group comparisons were analyzed by unpaired Student's t test. The level of significance for all statistical analyses was set at P<0.05. *** P<0.001 compared to control.
# [11] = tested on: DU145 prostate cancer xenograft tumors; test: DU145 prostate cancer xenograft tumor volume in nude mice; format: in vivo, male BALB/c athymic nude mice
# Procedure: Data are shown as mean±S.E. Two group comparisons were analyzed by unpaired Student's t test. The level of significance for all statistical analyses was set at P<0.05. * P<0.05 compared to saline-treated control.
# For in vivo studies, DU145 cancer cells (5×10^6) in 0.2 ml FBS-containing-EMEM medium were injected subcutaneously into the right flank of each male BALB/c athymic nude mice (weight, 20±2 g). After cancer cell injection, the mice were randomly divided into 3 groups, namely the control, low-dose treatment, and high-dose treatment groups. Ten days after tumor cell implantation, each mouse of the low-dose treatment group and high-dose treatment group was injected, respectively, once daily by the intraperitoneal route with 0.084 mg (in 0.1 ml saline) and 8.4 mg (in 0.1 ml saline) recombinant sPDZD2 for 58 days. The width and length of the tumor in millimeters were measured weekly by a caliper, when the implanted tumor became measurable. The tumor volume was calculated according to the following formula: Volume=d^2×D/2 mm^3, where d is the shorter width and D was the longer length.
# [12] = 10^−9 M, 10^−8 M, 10^−7 M sPDZD2, 24 and 48 hours, P<0.001
# [13] = co-incubation 10^−8 M sPDZD2 with 10 μM Z-DEVD-FMK, 48 hours
molecule,measurement,setting,value
B1,decrease in cell viability,"LNCaP cells [1]; 10^−7 M sPDZD2, 24 hours",26.2%
same,decrease in cell viability,"LNCaP cells [1]; 10^−7 M sPDZD2, 48 hours",18.6%
same,decrease in cell viability,"LNCaP cells [1]; 10^−8M sPDZD2, 48 hours",14.7%
same,viability of the cells,"MCF-7 cells [2]; 10^−7M sPDZD2, 24 hrs.",97.34 ± 0.42%
same,viability of the cells,"MCF-7 cells [2]; 10^−7M sPDZD2, 48 hrs.",92.07 ± 0.89%
same,viability of the cells,"MCF-7 cells [2]; 10^−8M sPDZD2, 24 hrs.",96.69 ± 0.50%
same,viability of the cells,"MCF-7 cells [2]; 10^−8M sPDZD2, 48 hrs.",93.86 ± 0.76%
same,changes in cell viability (in words),"MCF-7 cells [2]; sPDZD2, 24 and 48 hours",No changes
same,decrease in cell proliferation,"Hep-G2 cells [3]; 10^−7 M sPDZD2, 24 hours",23.1%
same,decrease in cell proliferation,"Hep-G2 cells [3]; 10^−7 M sPDZD2, 48 hours",22.2%
same,decrease in cell proliferation,"Hep-G2 cells [3]; 10^−8 M sPDZD2, 24 hours",21%
same,decrease in cell proliferation,"Hep-G2 cells [3]; 10^−8 M sPDZD2, 48 hours",17%
same,effect on cell proliferation (in words),Hep-G2 cells [3]; [12],concentration-dependent inhibition
same,effect on the increase in cell proliferation induced by caspase-3 inhibitor treatment,Hep-G2 cells [3]; [13],abolished
same,viability of the cells,"22Rv1 cells [4]; 10^−7M sPDZD2, 24 hrs.",96.04 ± 0.50%
same,viability of the cells,"22Rv1 cells [4]; 10^−7M sPDZD2, 48 hrs.",92.65 ± 0.48%
same,viability of the cells,"22Rv1 cells [4]; 10^−8M sPDZD2, 24 hrs.",96.01 ± 0.38%
same,viability of the cells,"22Rv1 cells [4]; 10^−8M sPDZD2, 48 hrs.",93.02 ± 0.47%
same,changes in cell viability (in words),"22Rv1 cells [4]; sPDZD2, 24 and 48 hours",No changes
same,viability of the cells,"PC-3 cells [5]; 10^−7M sPDZD2, 24 hrs.",90.86 ± 1.12%
same,viability of the cells,"PC-3 cells [5]; 10^−7M sPDZD2, 48 hrs.",95.45 ± 0.56%
same,viability of the cells,"PC-3 cells [5]; 10^−8M sPDZD2, 24 hrs.",95.03 ± 1.00%
same,viability of the cells,"PC-3 cells [5]; 10^−8M sPDZD2, 48 hrs.",95.49 ± 0.79%
same,changes in cell viability (in words),"PC-3 cells [5]; sPDZD2, 24 and 48 hours",No changes
same,decrease in cell proliferation,"PC-3 cells [6]; 10^−7 M sPDZD2, 24 hours",22.6%
same,decrease in cell proliferation,"PC-3 cells [6]; 10^−7 M sPDZD2, 48 hours",41.6%
same,decrease in cell proliferation,"PC-3 cells [6]; 10^−8M sPDZD2, 24 hours",13.5%
same,decrease in cell proliferation,"PC-3 cells [6]; 10^−8 M sPDZD2, 48 hours",23.8%
same,effect on cell proliferation (in words),PC-3 cells [6]; [12],concentration-dependent inhibition
same,effect on the increase in cell proliferation induced by caspase-3 inhibitor treatment,PC-3 cells [6]; [13],abolished
same,decrease in cell proliferation,"22Rv1 cells [7]; 10^−7 M sPDZD2, 24 hours",15.4%
same,decrease in cell proliferation,"22Rv1 cells [7]; 10^−7 M sPDZD2, 48 hours",27.7%
same,decrease in cell proliferation,"22Rv1 cells [7]; 10^−8 M sPDZD2, 24 hours",12.7%
same,effect on cell proliferation (in words),22Rv1 cells [7]; [12],concentration-dependent inhibition
same,effect on the increase in cell proliferation induced by caspase-3 inhibitor treatment,22Rv1 cells [7]; [13],abolished
same,decrease in cell proliferation,"22Rv1 cells [7]; sPDZD2, 48 hours",21.7%
same,decrease in cell proliferation,"DU145 cells; 10^−7 M sPDZD2, 24 hours",29.9%
same,decrease in cell proliferation,"DU145 cells; 10^−7 M sPDZD2, 48 hours",43.5%
same,decrease in cell proliferation,"DU145 cells; 10^−8 M sPDZD2, 24 hours",25.8%
same,decrease in cell proliferation,"DU145 cells; 10^−8 M sPDZD2, 48 hours",38.6%
same,effect on cell proliferation (in words),DU145 cells; [12],concentration-dependent inhibition
same,effect on the increase in cell proliferation induced by caspase-3 inhibitor treatment,DU145 cells; [13],abolished
same,viability of the cells,"DU 145 cells; 10^−7M sPDZD2, 24 hrs.",93.78 ± 1.06%
same,viability of the cells,"DU 145 cells; 10^−7M sPDZD2, 48 hrs.",95.25 ± 0.88%
same,viability of the cells,"DU 145 cells; 10^−8M sPDZD2, 24 hrs.",94.66 ± 0.69%
same,viability of the cells,"DU 145 cells; 10^−8M sPDZD2, 48 hrs.",95.09 ± 1.02%
same,changes in cell viability (in words),"DU 145 cells; DU145, sPDZD2, 24 and 48 hours",No changes
same,viability of the cells,"Hep-G2 cells [8]; 10^−7M sPDZD2, 24 hrs.",93.37 ± 0.54%
same,viability of the cells,"Hep-G2 cells [8]; 10^−7M sPDZD2, 48 hrs.",93.58 ± 0.64%
same,viability of the cells,"Hep-G2 cells [8]; 10^−8M sPDZD2, 24 hrs.",93.38 ± 0.54%
same,viability of the cells,"Hep-G2 cells [8]; 10^−8M sPDZD2, 48 hrs.",93.64 ± 0.66%
same,changes in cell viability (in words),"Hep-G2 cells [8]; sPDZD2, 24 and 48 hours",No changes
same,decrease in cell proliferation,"MCF-7 cells [9]; 10^−7 M sPDZD2 (first-named of '10^−7 M and 10^−7 M'), 24 hours",14.5%
same,decrease in cell proliferation,"MCF-7 cells [9]; 10^−7 M sPDZD2 (second-named), 24 hours",23.2%
same,decrease in cell proliferation,"MCF-7 cells [9]; 10^−7 M sPDZD2, 48 hours",21.4%
same,effect on cell proliferation (in words),MCF-7 cells [9]; [12],concentration-dependent inhibition
same,decrease in cell proliferation,"MCF-7 cells [9]; 1108 M sPDZD2, 48 hours",13.7%
same,effect on the increase in cell proliferation induced by caspase-3 inhibitor treatment,MCF-7 cells [9]; [13],abolished
same,"absorbance at 405 nm (mono- and oligo-nucleosomes in the cell cytoplasm, apoptosis)","LNCaP cells [10]; 10^−7 M sPDZD2, 24 hours",Significant (P<0.001) increases
same,"absorbance at 405 nm (mono- and oligo-nucleosomes in the cell cytoplasm, apoptosis)","LNCaP cells [10]; sPDZD2, 24 hours",Significant (P<0.001) increases
same,tumor volumes compared with saline-treated group,"[11]; high dose 8.4 mg once daily intraperitoneal for 58 days, at 39, 46, 53, 60 and 67 days after tumor cell implantation",significant decreases
same,tumor volumes compared with saline-treated group,[11]; low dose 0.084 mg once daily intraperitoneal for 58 days,No significant differences
